Source: US20190315859A1

B1: CD19×CD3 bi-specific antibody based on clone 6 (bispecific antibody, part only; not given: anti-CD3 scFv arm, linker, His tag, not shown: another chain or arm of the molecule; small tags and cut ends)
scFv: QAVLTQPPSVSEAPRQRVTISCSGSSSNVGNNAVNWYQQVPGKAPKLLIYYDDLLSSGVSDRFSGSKSGTSASLAISGLQSEDEADYYCAAWDDSLNGPVFGGGTKLTVLGSRGGGGSGGGGSGGGGSLEMAEVQLVQSGAEVKKPGESLKISCKGSGYSFTSYWIGWVRQMPGKGLEWMGIIYPGDSDTRYSPSFQGQVTISADKSISTAYLQWSSLKASDTAMYYCARWSSTWDSMYMDYWGQGTLVTVSS
B2: CD19×CD3 bi-specific antibody based on clone 7 (bispecific antibody, part only; not given: anti-CD3 scFv, linker, His tag, not shown: another chain or arm of the molecule; small tags and cut ends)
scFv: QPVLTQPPSVSVAPGKTARITCGGNNIGSESVHWYQQKPGQAPMVVIYYDSNRPSGIPERFSGSNSGNTATLTVSRVEAEDEADYYCQVWNSSSDHRGVFGGGTKLTVLGSRGGGGSGGGGSGGGGSLEMAEVQLVQSGAEVKKPGESLRISCKGSGYSFTSYWIGWVRQMPGKGLEWMGIIYPGDSDTRYSPSFQGQVTISADKSISTAYLQWSSLKASDTAMYYCARVTYSMDSYYFDSWGQGTLVTVSS
B3: CD19×CD3 bi-specific antibody based on variant clone 5-3 (bispecific antibody, part only; not given: anti-CD3 scFv, linker, His tag, not shown: another chain or arm of the molecule; small tags and cut ends)
scFv: LPVLTQPPSVSVAPGKTARITCGGNNIGSKSVHWYQQKPGQAPVLVVYDDSNRPSGIPERFSGSNSGNTATLTISRVEAGDEADYYCQVWDSSSEYVVFGGGTKLTVLGSRGGGGSGGGGSGGGGSLEMAEVQLVQSGAEVKKPGESLKISCKGSGYSFTSYWIGWVRQMPGKGLEWMGIIYPGDSDTRYSPSFQGQVTISADKSISTAYLQWSSLKASDTAMYYCARQVWGWQGGMYPRSNWWYNMDSWGQGTLVTVSS

Columns and labels:
[1] = biological target: human CD19 expressed on the cell surface (native format) (human) (UniProt P15391); test: flow cytometry, human PBMC gated on CD20+CD3- B cells, FITC anti-His detection
Chain of human CD19 expressed on the cell surface (native format) (human) (P15391 20-488 limits assumed): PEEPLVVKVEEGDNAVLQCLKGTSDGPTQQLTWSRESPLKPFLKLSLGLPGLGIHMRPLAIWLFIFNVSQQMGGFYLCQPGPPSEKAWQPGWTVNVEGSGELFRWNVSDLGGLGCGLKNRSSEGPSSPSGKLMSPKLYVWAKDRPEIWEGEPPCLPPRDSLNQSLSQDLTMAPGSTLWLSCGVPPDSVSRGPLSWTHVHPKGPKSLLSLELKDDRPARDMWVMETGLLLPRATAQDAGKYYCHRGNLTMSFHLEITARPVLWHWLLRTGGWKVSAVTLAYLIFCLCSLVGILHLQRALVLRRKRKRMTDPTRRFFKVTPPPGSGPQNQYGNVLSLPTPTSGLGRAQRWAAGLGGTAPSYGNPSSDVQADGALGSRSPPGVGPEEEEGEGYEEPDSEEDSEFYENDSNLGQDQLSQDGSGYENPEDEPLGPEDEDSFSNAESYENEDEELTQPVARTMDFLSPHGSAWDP

[2] = biological target: human CD19 expressed on the cell surface (native format) (human) (UniProt P15391); test: bi-specific antibody titration flow cytometry on Raji cells
[3] = biological target: human CD19 expressed on the cell surface (native format) (human) (UniProt P15391); test: apparent KD from bi-specific antibody titration flow cytometry on Raji cells

| Binder | Mean Fluorescence Intensity (MFI) in FITC channel [1] | EC50 [2] | Kd [3] |
| --- | --- | --- | --- |
| B1 | 2200 MFI | 0.214 mg/L | 4.1 nM |
| B2 | 1880 MFI | – | – |
| B3 | – | 0.081 mg/L | 1.6 nM |
